Data from patent publication US20240024851A1.

Key:
[1] = molecular target: adeno-associated virus type 2 (AAV2) particles (adeno-associated virus type 2) (UniProt P03135); assay: affinity column (beads), AAV2 crude liquid, 0.2 mL/min, qPCR
[2] = molecular target: adeno-associated virus type 2 (AAV2) particles (adeno-associated virus type 2) (UniProt P03135); assay: affinity column (beads), AAV2 pre-treatment liquid, 0.2 mL/min, qPCR
[3] = molecular target: adeno-associated virus type 2 (AAV2) particles (adeno-associated virus type 2) (UniProt P03135); assay: affinity column (beads), AAV2 crude liquid, retention time 5 sec, qPCR
[4] = molecular target: adeno-associated virus type 2 (AAV2) particles (adeno-associated virus type 2) (UniProt P03135); assay: affinity column (beads), AAV2 crude liquid, retention time 10 sec, qPCR
[5] = molecular target: adeno-associated virus type 1 (AAV1) particles (adeno-associated virus type 1); assay: batch adsorption of AAV1 pre-treatment liquid to discs (ligand on nonwoven fabric 1), acid elution, qPCR

Row | Molecule | leaked AAV to FT [1] | ratio of leaked AAV to recovered AAV [1] | ratio of residual AAV to recovered AAV [1] | recovered AAV in elution step [1] | residual AAV in washing step [1] | ratio of residual AAV to recovered AAV [2] | recovered AAV in elution step [2] | residual AAV in washing step [2] | leaked AAV to FT [3] | ratio of leaked AAV to recovered AAV [3] | ratio of residual AAV to recovered AAV [3] | recovered AAV in elution step [3] | residual AAV in washing step [3] | leaked AAV to FT [4] | ratio of leaked AAV to recovered AAV [4] | ratio of residual AAV to recovered AAV [4] | recovered AAV in elution step [4] | residual AAV in washing step [4] | amount of the AAV1 adsorbed [5]
1 | POROS CaptureSelect AAVX (ligand of the commercial affinity resin, Thermo Scientific) (VHH) | 5.97e+09 vg | 1% | 17% | 8.77e+11 vg | 1.49e+11 vg | 48.8% | 5.75e+11 vg | 2.8e+11 vg | 1.38e+11 vg | 19% | 22% | 7.42e+11 vg | 1.67e+11 vg | 4.19e+10 vg | 5% | 17% | 8.66e+11 vg | 1.47e+11 vg | 
2 | anti-AAV-VHH antibody VHH1 (VHH) VHH: QVQLVESGGGLVQAGGSLRLSCAASGRTFSSYAMGWFRQAPGKEREIVASISWNGGSTDYADSVKGRFTISRDNAKNTVYLQMNSLKPEDTAVYYCAADSTNWVFYDYWGQGTQVTVSS |  |  |  |  |  |  |  |  |  |  |  |  |  |  |  |  |  |  | 1.1e+13 vg/mL-column
